Source: patent publication US20190359686A1 (INNOVATIVE TECHNOLOGIES IN BIOLOGICAL SYSTEMS SL, published 2019)
Where no end group is shown, it is not given here.

T1: F2R like trypsin receptor 1 (PAR2) (UniProt P55085 37-397)
T1 sequence (looked up): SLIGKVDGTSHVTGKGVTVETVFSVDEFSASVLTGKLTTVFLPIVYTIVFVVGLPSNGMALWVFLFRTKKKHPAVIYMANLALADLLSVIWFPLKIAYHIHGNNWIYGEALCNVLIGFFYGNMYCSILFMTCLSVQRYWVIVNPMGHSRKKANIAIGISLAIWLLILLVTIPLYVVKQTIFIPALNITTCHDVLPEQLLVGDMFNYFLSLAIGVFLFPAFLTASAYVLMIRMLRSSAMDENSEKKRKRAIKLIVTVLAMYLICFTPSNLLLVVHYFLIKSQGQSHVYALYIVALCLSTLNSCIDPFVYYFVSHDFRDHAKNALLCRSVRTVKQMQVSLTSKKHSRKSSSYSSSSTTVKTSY

B1: SLIGKV (peptide)
peptide: SLIGKV
B2: SLIGRL-NH2 (peptide)
peptide: SLIGRL-NH2

Biological target: T1, F2R like trypsin receptor 1 (PAR2)
Assay: cell-based or functional assay

Binder | EC50 SLIGKV calcium assay [µM] | EC50 SLIGKV ß-Arrestin assay [µM] | EC50 SLIGRL-NH2 calcium assay [µM] | EC50 SLIGRL-NH2 ß-Arrestin assay [µM]
B1 | 1.67 | 4.83 |  | 
B2 |  |  | 4.06 | 12.7
